# Results published in the nanobody polyreactivity screen of Harvey et al. (2022).
# Experiment: yeast display, Sf9 membrane polyspecificity reagent, FACS + sequencing; frameworks hold sequencing errors
# Procedure, shortened: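 Synthetic nanobody libraries on Saccharomyces cerevisiae BJ5465 were galactose-induced for 36–48 hours, stained 1 hour at 4 °C with 10% biotinylated, detergent-solubilized Sf9 membrane reagent and enriched on streptavidin microbeads. FACS then separated cells into low and high (top ~1%) gates by anti-HA (expression) and streptavidin (reagent binding) fluorescence. Genes were colony-PCR amplified, MiSeq 2 × 250 sequenced and CDR-length filtered. A clone's polyreactivity label is that of its gate of origin.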
row,Sequence,polyreactivity (PSR sort gate)
1,QVQLVESGGGLVQAGGSLRLSCAASGSTFSHNAMGWYRQAPGKERELVAAISTSGSRTYYADSVKGRFTISRDNAKNSVYLQMNSLKPEDTAVYYCNTVPIYYSGYDYWGQGTQVTVSS,high polyreactivity
2,QDQLLESGGGVFQAGGSLRLSCAASGVIFGSYALGWYRPAPGKERELVADITQSGGRTRYADSVKGRFTISRDNAKNTVYLQMNSLKPEDSAVYYCNAQDVDSGDDYDYWGQGTQVTLSS,low polyreactivity
3,QVQLVESGGGLVQAGGSLRLSCAASGRTFNYYAMGWYRQAPGKERELVAAITSGSTTYYADSVKGRFTISRDNAKNTVYLQMNSLKPEDTAVYYCATAWRPADNSWGQGTQVTVSS,low polyreactivity
4,QVQLVESGGGLVQAGGSLRLSCAASGRTFFYNAMGWYRQAPGKERELVAAISGRGGRTYYADSVKGRFTISRDNAKNTVHLQMNSLKPEDTAVYYCAADAGPLRYDYWGQGTQVTVSS,high polyreactivity
5,QVQLVESGGGLVQAGGSLRLSCAASGLIFGWYAMGWYRPEPGKEREFVASIRYGGGSTYYADSVKGRFTISRDNAKNTVYLQMNSLKPEDTAVYYCAADRYPWHLQYVEYDSDYWGQGTQVTVSS,low polyreactivity
6,QVQLVESGGGKVQAVGSLRLSCAASGRTFYPYAMGWYRQAPGKERELVAVITWSTGNTYYADSVKGRFTISRDNAKNTVYLQMNSLKPEDTAVYYCAAAYYRYRGTIRYYYWGQGTQVTVSS,high polyreactivity
7,QVQLVESGGGLVQAGGSLRLSCAASGGIFGTYAMGWYRQAPGKEREFVAAITSGDSTYYADSVKGRFTISRDNAKNTVYLQMNSLKPEDTAVYYCAVGSTDRVSAQGSYFTYDYWGQGTQVTVSS,low polyreactivity
8,QDQLVESGGGLVQAGGSLRLSCGASGGIFWKYAMGWYRQAPGKERELVAAISRSGSSTYYADSVKGRFTISRDNAKNTVYLQMNSLKPEDTAVYYCAAQPYDSNYGNSGYWGQGTQVTVSS,high polyreactivity
9,QVQLVESGGGLVQAGGSLRLSCAGSGSTLAIYAMGWYRHAPGKERELVAAISGGGSTYADSVKGRFTISRDNAKNTVYLQMISLKPEDTAVYYCNADGWGDRFWSNFRFDYWGQGTQVTVSS,low polyreactivity
10,QVQLVESGGGLVQAGGSLRLSCAASGRIFRVNAMGWYRQAPGKERELVATITGSGGSTYYADSVKGRFTISRDNAKNTVYLQMNSLKPEDTAVYYCAAVSYWPTDRYYSWGQGTQVTVSS,low polyreactivity
11,QVQLVESGGGLVQAGGSLRLSCAASGLIFLRNAMGWYRQAPGKERELVAAISRSGGSTYYADSVKGRFTISRDYAKNTVYLQMNSLKPDDTAVYYCAKYGYGGVIPGPDHYDYWGQGTQVTVSS,high polyreactivity
12,QVQLVESGGGLVQAGGSLRLSCAASGFIFRVYAMGWYRQAPGKERELVATITYDGGRTYYADSVKGRFTISRDNAKNTVYLQMNSLKPEDTAVFGYWGQGTQVTVSS,low polyreactivity
13,QVQLVESGGGLVQAGGSLRLSCAASGSTFNANAMGWYRQAPGKERELVAGISSGGSTYADSVKGRFTISRDNAKNTVYLKMNSLKPEDTAVYYCNADFYSWYPTFYWYDYWGQGTQVTVSS,high polyreactivity
14,QVQLVETGGGIVQAGGRLRLTCAASGSSFYSYAMGWYRQAPGKEMELVAAITTSGGNTLYADSVKGRFTISRDNAKNTVDLQMNSLKPEDTADYYCAADVFRGGDYEYDYWGQGTQVTVSS,low polyreactivity
15,QVQLVESAGGLVQAGGSLRLSCAASGSTFWLYAMGWYRQAPGKERELVAAISYTGTSTYYADSVKGRFTISRDNAKNTVYLQMNSLKPEDTAVYDCAADFVGLVTGYDYSWGQGTQVTVSS,low polyreactivity
16,QVQLVESGGVLVQEGGSLRLICAASGSIFGYYVMGWYRQAPGKERELVAAISRSGGSTYYADSVKGLFTISRDNAKTTVYLQMNSLKQEDTAVYYCAASFAVRYPRLDYWGQGTQVTVSS,high polyreactivity
17,QVQLVESGGGLVQAGGSLRLSCAASVSIIPHNTMGWYRQAPGKEMELVAAISRSGGSTYYADSVKGRFTISRDNGKKTVYLQMNSLKPEDTAVYYCSSDSYDVGHQVVSEERLYDYWGQGTQVTVSS,low polyreactivity
18,QVQLVESGGGLVQAGGSLRLSCAASGFIFRLNAMGWYRQAPGKERELVAAISTYADSMKGRFTISRDNAKNTVYLQMNSLKPEDTAVYYCAKDYTDTYAYRTGFDYWGQGTQVTVSS,low polyreactivity
19,QVQLVESGGGLVQAGGSLRLSCAASGRTFQNYAMGWYRQAPGKERELVADITSGGSTYADSVKGRFTMSRDNAKNTVYLQMNSLKPEDTAVYYCNADRTYPEPAEYYYWGQGTQVTVSS,low polyreactivity
20,QVQLVESGGGLVQAGGSLRLSCAGSGFTFGIYAMGSDRQAPGKERELVAAISSSGGSTYYADSVKGRFTISRDNAKNTVYLQMNSLKPEDTAVYYCAAVNSRRRYWYDYWGQGTQVTVSS,high polyreactivity
21,QVQLVESGGGLVQAGGSLRLSCAASGFIFYRYAMGWYRQAPGKERELVAAISSSGGSTYYADSVKGRFTISRDNAKNTVYLQMNSLKPEDTAVYYCAAEPSGKRSKFYYWGQGTQVTVSS,high polyreactivity
22,QVQLVESGGGLVQAGGSLRLSCAASGSIFKYNTMGWYRQAPRKERELVAAINGGGSTYYADSVKGRFTISRDNAKNTVYLLMNSLKPEDTAVYYCNARQWYWESPDDYWGQGTQVTVSS,low polyreactivity

row,Sequence,polyreactivity (PSR sort gate)
1,QVQLVESGGGLVQAGGSLRVSCAASGNTFGYFAMGWYRQAPGKERELVAAMSGSGGRTYYAASVKGRFTISRDNAKNTVDLQMNILKPEATAVYYCNAVYYHVVDFDYWGQGTQVTVSS,high polyreactivity
2,QVQLVESGGGLVQAGGSLRLSCAATGFTFTLYAMGWYRQAPGKERALVAAITRLGTSTYYADSVKGRFTISRDNAKNTVYLQMNNLKPEDTAVYYCAARGGGGQRYDYWGHGTQVTVSS,high polyreactivity
3,QVQLVESRGVLVQAGGSLRLSCAASGRTFYFYVKGWYIQEPGKERELVARISYSDGSTYYADSVKGRFTISRDNAKNTVYLQMNSLKPEDTAVYYCNAYDPYFGRRYDYWGQGTQVTVSS,low polyreactivity
4,QVQLVESGGGLVQAGGSLRLSCAASGSTIYPYAMGWYRQAPGKERELVAAISSGGRTYYADSVKGRFTISRDNAKNTVYLQMNSLKPEDTAVYYCAARVTKKYRRTYDYWGQGTQVTVSS,high polyreactivity
5,QVQLVESGGGIVQAGGSLRLSCAASGRIFVGYAMGWYRQAPGKEREFVAAITFRGGTTYYADSVKGSFTISRDNAKNTVYLQMNSLKPEDTAVYYCAVPHYLYSVEYGYWGQGTQVTVSS,low polyreactivity
6,QVQLVESGGGLVQAGGSLRLSCADSGFIFWVYAMGWYRQAPGKERELVAAITSGGGSTYYADSVKGRFTISRDNAKNTVYLQMNSLKPEDTAVYYCATSLYTDNSWENYWGQGTQVTVSS,high polyreactivity
7,QVQHVESGGGLVQAGGSLRLSCAASVRTFYTYAMGRDRQAPGKERELVAAISLSGTRTYYADSVKGRFTISRDNAKNTVYLQMNSLNPEDTAVYYCAADRFNKPYYYWGQGTQVTVSS,high polyreactivity
8,QVQLVESGGGLVQAGGSLRLSCAASGRIFIVYPMGWYRQAPGKERELVATITRGGSTNYADSVKGRFTISRDNAKNTVYLQMNSLKPEDTAVYYCAKGWTNRYPWPGRFRTLYDYWGQGTQVTVSS,low polyreactivity
9,QVQLVESCGGLVQAGGSLRLSCAASGSTLYYYAMGWYRQAPGKERELVASISWSGGRTYYADSVKGRFTISRDNAKYTVYLQMNSLKPEDTAVYYCNAVPYRGYDYWGQGTQVTVSS,low polyreactivity
10,QVQLVESGGGLVQAGGSLRLSCGASGRTFRKYAMGWYRQAPGKERELVASITYSGGSTYYADSVKGRFTISRDNAKNTVYLQMNSLKPEDTAVYYCAARLHWNRYPQTLYDYWGLGTQVTVSS,high polyreactivity
11,QVQLVESGGGLVQAGGSLRLSSAASGITLKRYALGWYRHAPGKERELVAAITGRGGGTNYADSVKGRFTISRDNAKNTVYLQMNSLKPEDTAVYYCAARYLQGRYDYWGQGTQVTVSS,high polyreactivity
12,QVQLVESGGGLVQAGGSLRLSCAASGRIFVDNAMGWYRQAPGKERELVAAITRGGSTYADSVKGRFTISRDNAQNTVYLQMISLKPEDTAVYYCAADLWSVPFTVYTFGIFYYWGQGTQVTVSS,low polyreactivity
13,QVQLVESGGGLVQAGGSLSLSCAASGRTLYVYTMGWYRQAPGKERELVASISSGVGTNYADSVKGRFTISRDNAKNTDYLQMNSLKPEDTAVYYCAARFRYYRHYYWGQGTQVTVSS,high polyreactivity
14,QVQLVESGGGLVQAGGSLRLSCAASGSTFLYYAMGWSRQAPGKEMELVAAISGSGGSTYYADSVKGRFTISRDNAKNTVYLQMNSLKPEDTAVYYCNAVARRHGLGPYDYWGQGTQVTVSS,high polyreactivity
15,QVQLVESGGGLVQAGGSLRLSCAASGRTFERNAMGWYRPAPGKERELVAAITWSGVSTYYADSVKGRFTISRDNAKNTVYLQMNSLKPEDTAVYYCAADWDWRFHRMNYWGQGTQVTVSS,low polyreactivity
16,QVQLVESGGGLVQAGGSLRLSCAASGLIFGGNAMGWYRQAPGKERELVAAISRSTGRTYYADSVKGRFTISRDTAKNTVYLQMNSLKPEDTAVYYCNAVGYAFPSYDSWGQGTQVTVSS,high polyreactivity
17,QVQLVESGGGLVQAGGSLRLSCAASGRTFNGYAMGWYRQAPGKERELVAAISSSGSTNYADSVKGRFTISRDNAKNTVYLQMNSLKPEDTAVYYCAAEYYAYESVEYDYWGQGTQVTVSS,low polyreactivity
18,QVQLVESGGGLVQAGGSLRLSCAASGSIFRRYAMGWYRKAPGKERELVAGISRGGGITYYADSVKGRFTISRDNAKNTVYLQMNSLKPEDTAVYYCAARIGATYWVDWTHRAYDYWGQGTQVTVSS,high polyreactivity
19,QDQLVESGGGLVQAGGSLRLSCAASGSTFQYYTMGWYRQAPGKERELVAAISGDGGNTYYADSVKGRFTISRDNAKNTVYLQMNRLKPEDTAVYYCNADGLILYDYWGQGTQVTVSW,low polyreactivity
20,QDQLVDSGGGLDQAGGSLRLSCAASGGTFSSYDMGWYRQEPGKERELLADISWSGSSTDYADSVKGRYTISRDNAKNTVYLQLTSLKPEDTAVYYCAARPISFPYLGRNGYWGQGTQVTVSS,low polyreactivity
21,QVQLVESGGGLVQAGGSLRLSCAASGSIIWLYAMGWYRQAPGKERELVAAISSGGSTYYADSVKGRFTISRDNAKNTVYLQMNSLKPEDTAVYYCAATYSSFRRYPGAHYRFGYWGQGSQVTVSS,high polyreactivity
